In the DeepSol protein solubility set:

Assay: soluble on expression in E. coli; label from the status in PepcDB or PDB records

Sequence | soluble on expression in E. coli
MGHHHHHHSNKIERIIARLQRRIAEGQPEEQYEAAQETRLVAARYSKQGNWAAAVDILASVSQTLLRSGQGGSGGDLAVLLVDTFRQAGQRVDGASRGKLLGCLRLFQPGEPVRKRFVKEMIDWSKKFGDYPAGDPELHHVVGTLYVEEGEFEAAEKHLVLGTKESPEVLARMEYEWYKQDESHTAPLYCARAVLPYLLVANVRAANTAYRIFTSALVEDNKGLTVQNIGSQSAELRIFPSLPLLNFISMLLLSVQKGSPDLFRQLKSKYEANLNELNGIWDTALELIAEMYFGIQRPRQSNPLLDMMGSLFGGGGGAPSKAALRRIDTPAAEGLD | soluble
MGIFDFLSGQFIDVIHWTDDTRDTMVWRFEREGHEIKYGAKLTVREGQSAVFVHEGQLADVFTPGLYMLETNNMPILTTLNHWDHGFRSPFKSEIYFVNTTRFNNLKWGTKNPIMLRDPEFGPTRIRAFGTYSVRVTDPARFLSEIVGTDGEFTMDEISFQIRNIIVQEFSRVIAASGIPVLDMAANTADLGKLIAAQVALPLTEYGLEMPEFYIENISLPPAVEAALDKRTSMGLAGDLGKFTQYSAAEAMTAAATNPAGGGMAAGLGAGMGMAMAQQMAQPGPWGAAPASRHAAPPPPPVEHVWHVAVDGQTSGPFSKAKMGRMAAEGEITRDTYVWTPGQDGWKRAEDVRELAQLFTILPPPPPPPGALEHHHHHH | soluble
MGIKGLSQVIADNAPSAIKVNEMKAFFGRTVAIDASMCLYQFLIAVRQDGSQLQSEDGETTSHLMGMLNRTVRMFENGVKPVYVFDGKPPDMKGGELEKRSERRAEAEKALTEAKEKGDVKEAEKFERRLVKVTKQQNDEAKRLLGLMGIPVVEAPCEAEAQCAHLVKAGKVFGTVTEDMDALTFGSTVLLRHFLAPVAKKIPIKEFNLSLALEEMKLSVEEFIDLCILLGCDYCGTIRGVGPKKAVELIRQHKNIETILENIDQNKYPPPEDWPYKRARELFLNPEVTKPEEVELTWKEADVEGVIQFLCGEKNFNEERIRNALAKLKTSRKSGTQGRIDSFFGNSTKVTCVTAATKRKAEEAEKAKKGAKKGGPPKKRAK | not soluble
MGISEIIRSHRKKENLTQEQVANYLNISTPAVNKWENGITYPDITLLAPLARILKIDVNTLLAFNEELTEKEVNKLGRSVGEIVEKEGYQKAFEKGSDLIKQYSSCDELILRISSILRLFLVTAKVEKKDIYEDKIIAWAEIVAASRNEKTADMAKIFLSAVYRDKKEYKKAKEILDKVPDMELGSDKKIQQLLLLESSGEFDKAYGACEEVLLYNAQESLGAMVLIIRMLLKENKFSEAEEYTQRAKKLVEVFDLGEYSKYTLELSLIKEKRDEEKAVELIRNMIDNADSMNNFMRSKLYKHRKIEVTNSLDKDRYKKIVRMSIIKDKALDFVKDDPRVKSLLK | not soluble
MGITDGVVVDLGGGTTGISILEKGKVIFVADEPTGGTHMTLVLAGSYGIDFETAEDIKTDKKKEKEVFVQITPVLQKMAAIVKKYIKDYKVKDVFLVGGACSFDGSESIFERELGLNIYKPYMPVLEHHHHHH | not soluble
MGKDLRGKELGVGLYQRKDKRYSARYTNQYGKRMEFYDFKLSVVKKWLNDARYEDEHGLSGTGEKVTVTEWFEKWIKLYKEGVVKDNTVKNYKSRFENNIKPAIGNLQLNKVKKIQLQTILNNMYEEGYAFGTMVLAQITIHALFDGAVQSEILAKNPANGLKCKQRDVKDSRVLTREEQKVFLEYSRGTMYYNAYALLLQTGLRPGEVGGLKWEDIDFDKRELHITRTLLQDKAKGGFYFGSPKNKKSIRTVPLTDTAIQLLKDQRICNFKLRQRSDNWQKNKEFDNLIFCTINGNPVGQSTFRMMMLRVITRINNDRRAEAEINNTTYVEFEPAHPHTLRHTFATRCIEDGMKPNVLQKILGHASITVTMDLYVHETHEEKHKEIRKLGNVEEIGVKLA | not soluble
MGKENLYVVLPSYNEEANIGKLINEWNVQFKDLEARGIKLEIIIVNDGSTDNTLAVAEAFSKHNDNVVVIDHGVNKGLGEGLNTGINYVLSQKQKGYMCLMDGDMTHEPKYIFSMLDKLQEEKLDCVIASRYRRGAKVEGLSLFRKFLSFGARVLYTIRLGIPNVRDYTCGYRLYKTSVLEKLHKVYGKRIVKETGFACMMELIVKVSKENFKIGEVPFVLKYQLKGGESKMKVGKTIKRSLLLLRVYK | soluble
MGKKQHQKDKLYLTTSEWKSIGGHKDDTGTRLQRAQFKRLPINHCSLSLLPFEDPVCARSGEIFDLTAIVPYLKKHGKNPCTGKPLVAKDLIHLKFDKGEDGKFRCPVTFRTFTDHSHILAIATSGNVYSHEAVQELNLKRNHLKDLLTDVPFTRADIIDLQDPNHLEKFNMEQFLHVKLDLKTSEEIKKEKDAMKDPKFYIRRMNNACKSVLDQLDKEYVPKKSSTETDETADEINAAHYSQGKVAAGFTSTVMAPVTSNKAAVLDNDTVRYSRVKKNAFVRLVTNFGPLNLELFAPKVPKACENFITHCSNGYYNNTKFHRLIKNFMLQGGDPTGTGHGGESIWDKPFSDEFISGFSHDARGVLSMANKGSNTNGSQFFITFRPCKYLDRKHTIFGRLVGGQDTLTTIEKLETEEGTDVPMVSVVIMRAEVFVDPFEEAEKEVQAERAEILKKTSKDAASLANKKAKETATKPEAVGTGVGKYMKSAAAVNKRQGKMEDVPLEAAKKTKFARAGLGDFSKW | not soluble
MGLFTTRQLLGYTEQKVKFRALFLELFFRRTVNFHTEEVMLDKITGKTPVAAYVSPVVEGKVLRHRGGETRVLRPGYVKPKHEFNYQQAVERLPGEDPAQLNGPAYRRLRIITDNLKQEEHAIVQVEEMQAVNAVLYGKYTMEGEQFETVEVDFGRSVGNNITQAGGTEWSAQDRDTFDPTHDLDAYCDFASGTINIAIMDGKVWRLLNGFKLFREKLDTRRGSNSQLETAVKDLGAVVSFKGYYGDLAIVVAKTSYVAEDGTEKRYLPDGTLVLGNTAAEGIRCYGAIQDAQALSEGVVASSRYPKHWLTVGDPAREFTMTQSAPLMVLPDPDEFVVVQVK | not soluble
MGLKLDLTWFDKSTEDFKGEEYSKDFGDDGSVMESLGVPFKDNVNNGCFDVIAEWVPLLQPYFNHQIDISDNEYFVSFDYRDGDW | soluble
MGLLLYRELVHKLKTKYKKIAGKGENQKDKTLPWHLETDQLTNRHPNHKVRIPYIDEVFDMLAKMTAKNQLTLPKSVTTAVGAGEYFEIEVRNGQIVLTPVRIQRADAVRAKLAELDLGERDIMDAVTWARQPVKGSATE | not soluble
MGLNVREGEIMAKNRSRRLRKKMHIDEFQELGFSVAWRFPEGTSEEQIDKIVDDFINEVIEPNKLAFDGSGYLAWEGLICMQEIGKCTEEHQAIVRKWLEECKLDEVRTSELFDVWWD | not soluble
MGLSCALTSGLSLRCFSNTPARLSCGAGILHCSKLCLSGFGDPAQGRLHNANHGAVRLHGTVTAFKHRRGYGFVLAEGVAASAPPLKHTYVALDTHAAAARNNGVPPAREEACNELHKSFFFTRSALMGGFYVTEGERVSFAVVAVPPGKGINRRVAGDSPSTRKDDGDHAALGGAETAEFLLGSPEGELEEDSSAATSDTQSQLHRIAVSLRYYDAKTGKETPISPLTLYGKIVEWDAAAGVGVIAELDTRRQYHEDAPRFPFSLESVDLALGTELRSGRYVRFCLEPATHAQGGGGEDTAAAVTPTSGAEAAADVDEDVELVAQRVIIDSSMERRKGVFGRPLVLADAAPGTMTSESRFSGVVREVKADHFGFIQDDLSGESIFFHLSNASSRVKAGDRVTYLLREVEYGKHTGKKACFDVLIDQTVTSRARDAASDCGASAGAGNAGGHHRKHAAERRSKTARDEDDLDFELL | not soluble
MGLTTMGLTTMGLTTKGLTTMGLTTKGLTTKGLTTMGLTTKGFTTKGLTTMGVTTKGLTTMGLTTKGLTTKGLTTKGFTTKGLTTMGLATMGLTTKGLTTMGLTTMGLTTKGLTTKGLTTKGLTTKGLTTKGLTTMGLTTKGFTTKGLTTMGLTTMGLATMGLTTKGLTTMGLTTKGFITKGLTTMGLATMGLTTMGLTTKGLTTKGLTTKGLTTMGLTTKGFITKGLTTMGLATMGLTTMGLTTKGLTTMGLTTMGLTTKGLTTKGLTTKGLTTKGLTTKGLTTMGLTTKGFTTKGLTTMGLATMGLATMGLTTMGLTTKGLTTKGLTTKGLTTKGLTTMGLTTKGFTTKGLTTMGLTTMGLTTKGLTTKGLTTKGLTTKGLTTMGLTTKGFTTKGLTTMGLATMGLTTKGLTTMGLTTKGFITKGLTTMGLATMGLTTMGLTTKGLTTKGLTTKGLTTMGLTTMGLTTMGLTTMGLTTMGLTTMGLTTMGLTTKGLTSQGVMDQAGVNRVEGEPINRLRTCEGKGNGRGDMQGVGNLGKALRGREDSLIVSSETRGFPRMGLWPGFPPIEYQGQVQSLE | not soluble
MGMKYLIKLKYIKPAQLAVNREQKLAEFYPIFEDGTLGRVEAKARVFLPEYSDFAKGLGFEVKKRRMITEDDYAYLRAMVYGVVMGVLRNPGDWRRLEERVLEMEPIELRYWASKFRNAYWKYKNMRKLMFLARRFMEVEMILEHHHHHH | soluble
MGNAKSTDSNPKKSVRRKSATTPSTSSSSRPSISSQGNRKPILSVNQRQIIKGCMDNSKDDLGERIFRRALERRDDFKQFIDNLSKGQRYENSQYLKQFLLGIVENIMDIDEINRISEEFGCNHVQFRANGFKPDFFACTADAVTTECTFLDQAAHPTSETAAAWSLLTSHVFSAVRDGYYAELRRQRKSSNAFRARVSVDVVSTGTDDGTSLSSATRRSNSPQEEIAESFDHHTVENNCVESSGNFLAPPTVY | not soluble
MGNCLKSPTSDDISLLHESQSDRASFGEGTEPDQEPPPPYQEQVPVPVYHPTPSQTRLATQLTEEEQIRIAQRIGLIQHLPKGVYDPGRDGSEKKIRECVICMMDFVYGDPIRFLPCMHIYHLDCIDDWLMRSFTCPSCMEPVDAALLSSYETN | soluble
MGNDKRVRKPEWLKISIGANERYTETKRIVESHCLHTICSSGRCPNMGECWGKGTATFMIAGDICTRSCKFCNTQTGRPLPLDPDEPTHVAESIALMKLSHAVITSVDRDDLPDLGAAHWAQTIREIKRLNPETTTEVLIPDFQGRKELVDQVIKACPEIISHNMETVKRISPQVRSAANYHTSLEVIRQIAESGITAKSGIMVGLGETPAEVEELMDDLISVGCKILTIGQYLQPTHKHFPVAAYITPEQFAVYKETGLKKGFEQVESAPLVRSSYHAEKHIRFNNK | not soluble
MGNEEEKMNADIFSYEGEGIQCVYDNKNWVMCIKNWKPNNDIENIRYLEVHHATDEQFVLLKGKAVLLAAVKADGACRIDVIPMEPYKVYNIPQGIWFNTITQKDTKLVYVQDAATTAENSEYCDMTQEELNEVKEKASACLD | not soluble
MGNFHATTIFAVHHNGECAMAGDGQVTMGNAVVMKHTARKVRKLFQGKVLAGFAGSVADAFTLFEMFEGKLEEYNGNLQRAAVEMAKQWRGDKMLRQLEAMLIVMDKTTMLLVSGTGEVIEPDDGILAIGSGGNYALSAGRALKQYASEHLTAKQIAKASLEIAGDICVYTNHNIIVEEL | not soluble
MGNIMSASFAPECTDLKTKYDSCFNEWYSEKFLKGKSVENECSKQWYAYTTCVNAALVKQGIKPALDEAREEAPFENGGKLKEVDK | soluble
MGNKRVLITGATGFIGGYLVDEALRRQYEVWAAVRPHSDRSRLTDSRIRFVEIDYRDPSDIARLADKIAPEGESAWHLVIHNAGITKARDTSLFREINAEQTKRFLIGLQGAKHCPERFVLMSSMGSYGAPPDDCQPLSSSSVPKPTTAYGESKLLAEQYVQTFVTIPYTIIQPTGVYGPHDQDYLMAIRSVDKGFDFSTGNTPQTLTFIYAEDLASAVFIAAEHPDAAGQKYIVSDGKEYTDIEFGRMIQHLLDRKNVCHLRIPLPLVKATCYIGQKWADISGTLTPLNLDKYAIIAQRNWRCDSSPIRAIGFSPRYNLEQGLAETIRWARTTGQIRR | not soluble
